Results from article PMC7865148 (Proceedings of the National Academy of Sciences of the …, 2021).

T1: NST1-GST fusion protein (Arabidopsis thaliana, UniProt Q84WP6 1-365)
T1 sequence (looked up): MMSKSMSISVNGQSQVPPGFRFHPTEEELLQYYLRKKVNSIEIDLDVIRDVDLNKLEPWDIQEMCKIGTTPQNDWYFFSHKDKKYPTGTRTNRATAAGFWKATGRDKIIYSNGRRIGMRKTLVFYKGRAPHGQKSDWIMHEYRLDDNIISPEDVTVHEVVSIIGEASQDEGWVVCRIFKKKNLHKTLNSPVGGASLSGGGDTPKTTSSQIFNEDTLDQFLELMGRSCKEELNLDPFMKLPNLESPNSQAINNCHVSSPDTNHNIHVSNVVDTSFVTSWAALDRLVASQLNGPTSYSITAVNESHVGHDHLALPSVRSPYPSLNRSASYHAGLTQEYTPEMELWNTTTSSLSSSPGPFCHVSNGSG

B1: SnRK2.2-6xHis fusion protein (enzyme, Arabidopsis thaliana, UniProt Q39192 1-362, looked up)
chain: MDPATNSPIMPIDLPIMHDSDRYDFVKDIGSGNFGVARLMTDRVTKELVAVKYIERGEKIDENVQREIINHRSLRHPNIVRFKEVILTPSHLAIVMEYAAGGELYERICNAGRFSEDEARFFFQQLISGVSYCHAMQICHRDLKLENTLLDGSPAPRLKICDFGYSKSSVLHSQPKSTVGTPAYIAPEILLRQEYDGKLADVWSCGVTLYVMLVGAYPFEDPQEPRDYRKTIQRILSVTYSIPEDLHLSPECRHLISRIFVADPATRITIPEITSDKWFLKNLPGDLMDENRMGSQFQEPEQPMQSLDTIMQIISEATIPTVRNRCLDDFMADNLDLDDDMDDFDSESEIDVDSSGEIVYAL
B2: SnRK2.6-6xHis fusion protein (enzyme, Arabidopsis thaliana, UniProt Q940H6 1-362, looked up)
chain: MDRPAVSGPMDLPIMHDSDRYELVKDIGSGNFGVARLMRDKQSNELVAVKYIERGEKIDENVKREIINHRSLRHPNIVRFKEVILTPTHLAIVMEYASGGELFERICNAGRFSEDEARFFFQQLISGVSYCHAMQVCHRDLKLENTLLDGSPAPRLKICDFGYSKSSVLHSQPKSTVGTPAYIAPEVLLKKEYDGKVADVWSCGVTLYVMLVGAYPFEDPEEPKNFRKTIHRILNVQYAIPDYVHISPECRHLISRIFVADPAKRISIPEIRNHEWFLKNLPADLMNDNTMTTQFDESDQPGQSIEEIMQIIAEATVPPAGTQNLNHYLTGSLDIDDDMEEDLESDLDDLDIDSSGEIVYAM
B3: SnRK2.3-6xHis fusion protein (enzyme, Arabidopsis thaliana, UniProt Q39193 1-361, looked up)
chain: MDRAPVTTGPLDMPIMHDSDRYDFVKDIGSGNFGVARLMRDKLTKELVAVKYIERGDKIDENVQREIINHRSLRHPNIVRFKEVILTPTHLAIIMEYASGGELYERICNAGRFSEDEARFFFQQLLSGVSYCHSMQICHRDLKLENTLLDGSPAPRLKICDFGYSKSSVLHSQPKSTVGTPAYIAPEVLLRQEYDGKIADVWSCGVTLYVMLVGAYPFEDPEEPRDYRKTIQRILSVKYSIPDDIRISPECCHLISRIFVADPATRISIPEIKTHSWFLKNLPADLMNESNTGSQFQEPEQPMQSLDTIMQIISEATIPAVRNRCLDDFMTDNLDLDDDMDDFDSESEIDIDSSGEIVYAL

biological target: T1, NST1-GST fusion protein; experiment: pull-down

Binding result, binds:
B1
B2
B3
